The target of test [1] is T1, human TNFR1, soluble recombinant protein (human, UniProt P19438 22-211, limits assumed, biotinylated in the BIAcore assays (coupling via primary amines)).
T1 construct: also called biotinylated TNFR1; human recombinant E. coli-expressed human TNFR1
T1 sequence (looked up): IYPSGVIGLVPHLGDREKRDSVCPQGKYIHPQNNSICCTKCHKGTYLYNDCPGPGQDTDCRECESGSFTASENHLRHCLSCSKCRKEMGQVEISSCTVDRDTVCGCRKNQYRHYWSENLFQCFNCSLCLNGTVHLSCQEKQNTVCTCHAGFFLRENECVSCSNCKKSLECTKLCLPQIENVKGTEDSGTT
As to the kind of experiment: phage ELISA, plate coated with 1 nM TNFR1, anti-M13-HRP; trypsin 1 mg/ml 1 h room temp; phage input 2.82E+09. On the technique in general: An ELISA detects its analyte on a solid surface through an enzyme-linked reagent.

Test [2] has as its target T1, human TNFR1, soluble recombinant protein. As to the kind of experiment: phage ELISA, plate coated with 1 nM TNFR1, anti-M13-HRP; trypsin 10 µg/ml 1 h room temp; phage input 2.82E+09.
Test [3] shares this target. In words: phage ELISA, plate coated with 1 nM TNFR1, anti-M13-HRP; trypsin 1 mg/ml 1 h room temp; phage input 4.51E+10.
Test [4] shares this target. In words: phage ELISA, plate coated with 1 nM TNFR1, anti-M13-HRP; trypsin 10 µg/ml 1 h room temp; phage input 5.64E+09.
Test [5] has the same target. In words: phage ELISA, plate coated with 1 nM TNFR1, anti-M13-HRP; trypsin 0 µg/ml; phage input 1.41E+09.
Test [6] has the same target. In words: phage ELISA, plate coated with 1 nM TNFR1, anti-M13-HRP; trypsin 10 µg/ml 1 h room temp; phage input 2.26E+10.
The target is the same in test [7]. As to the kind of experiment: phage ELISA, plate coated with 1 nM TNFR1, anti-M13-HRP; trypsin 0 µg/ml; phage input 3.52E+08.
Test [8] shares this target. As to the kind of experiment: phage ELISA, plate coated with 1 nM TNFR1, anti-M13-HRP; trypsin 1 mg/ml 1 h room temp; phage input 1.13E+10.
Test [9] has the same target. As to the kind of experiment: phage ELISA, plate coated with 1 nM TNFR1, anti-M13-HRP; trypsin 10 µg/ml 1 h room temp; phage input 3.52E+08.
For test [10] the target is unchanged. As to the kind of experiment: phage ELISA, plate coated with 1 nM TNFR1, anti-M13-HRP; trypsin 0 µg/ml; phage input 5.64E+09.
For test [11] the target is unchanged. In words: phage ELISA, plate coated with 1 nM TNFR1, anti-M13-HRP; trypsin 0 µg/ml; phage input 4.51E+10.
Test [12] has the same target. In words: phage ELISA, plate coated with 1 nM TNFR1, anti-M13-HRP; trypsin 100 µg/ml 1 h room temp; phage input 2.82E+09.

For DOM1h-131 displayed on phage, the phage ELISA read-out is 0.114 in test [1]; 0.573 in [2]; 0.284 in [3]; 0.695 in [4]; 0.85 in test [5]; 0.802 in test [6]. The phage ELISA read-out in [7] is 0.577; in test [8], 0.183; in test [9], 0.213; in test [10] it was 0.962; in test [11], 0.916; in [12], 0.141.
